Measurements reported in patent publication US20210087268A1 (YUHAN, published 2021).

T1: TIGIT expressed on cells (TIGIT-expressing effector cell line of the Promega kit); TIGIT-overexpressing NK92 … (UniProt Q495A1 22-244, limits assumed)
T1 sequence (looked up): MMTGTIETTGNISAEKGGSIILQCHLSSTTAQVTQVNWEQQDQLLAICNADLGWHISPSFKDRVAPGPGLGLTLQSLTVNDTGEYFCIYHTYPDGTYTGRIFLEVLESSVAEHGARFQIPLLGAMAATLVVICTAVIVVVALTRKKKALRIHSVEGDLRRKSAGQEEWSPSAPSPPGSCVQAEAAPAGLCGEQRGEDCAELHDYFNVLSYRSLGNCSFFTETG

T2: human TIGIT expressed on CHO-S cells (CHO-hTIGIT) (human, UniProt Q495A1 22-244)
T2 construct: also called CHO-TIGIT cell line; TIGIT on the cell surface
T2 sequence: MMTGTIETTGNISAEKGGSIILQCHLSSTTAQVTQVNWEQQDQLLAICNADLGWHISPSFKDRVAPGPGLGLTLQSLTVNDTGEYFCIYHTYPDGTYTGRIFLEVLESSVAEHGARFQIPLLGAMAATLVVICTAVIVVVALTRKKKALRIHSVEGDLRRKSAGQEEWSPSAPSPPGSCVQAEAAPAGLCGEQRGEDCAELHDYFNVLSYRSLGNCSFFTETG

T3: human TIGIT-Fc (rhTIGIT-Fc, R&D Systems) (human, UniProt Q495A1 22-141)
T3 construct: Bought protein; also called human TIGIT (rhTIGIT-Fc); not shown: Fc part of the bought fusion protein
T3 sequence: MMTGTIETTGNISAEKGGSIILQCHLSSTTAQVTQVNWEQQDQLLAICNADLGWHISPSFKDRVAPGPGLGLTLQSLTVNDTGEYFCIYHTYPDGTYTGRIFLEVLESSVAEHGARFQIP

T4: mouse TIGIT-Fc (rmTIGIT-Fc, R&D Systems) (mouse, UniProt P86176 29-148, limits assumed)
T4 construct: Bought protein; also called mouse TIGIT (rmTIGIT-Fc); not shown: Fc part of the bought fusion protein
T4 sequence (looked up): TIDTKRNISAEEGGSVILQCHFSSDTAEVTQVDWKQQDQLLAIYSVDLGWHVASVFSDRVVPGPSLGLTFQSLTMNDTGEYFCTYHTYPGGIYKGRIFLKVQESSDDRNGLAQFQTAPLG


Columns and labels:
[1] = target: T1, TIGIT expressed on cells …; test: cell-based or functional assay
[2] = target: T2, human TIGIT expressed on CHO-S cells …; test: flow cytometry on CHO-TIGIT cells
Protocol: In order to identify the binding ability of the three types of anti-TIGIT antibodies produced in Example 2 to TIGIT expressed on the cell surface, TIGIT-overexpressing CHO cell line (hereinafter referred to as CHO-TIGIT cell line) was treated with anti-TIGIT antibodies and then the anti-TIGIT antibodies bound to TIGIT on the cell surface were detected using a fluorescence flow cytometer.
Specifically, the CHO-TIGIT cell line was cultured in a 5% CO2 incubator at 37° C. for 48 to 72 hours using a chemical composition medium (CD FortiCHO Chemically Defined Medium+8 mM L-Glutamine+20 μg/mL Blasticidin+1% Anti-clumping agent). The cultured CHO-TIGIT cell line was harvested by centrifugation, diluted in FACS solution (PBS+5% FBS), and dispensed at a density of 1×10⁵ cells/well in a 96-well round bottom plate (Corning). Then, in order to completely remove the chemical composition medium remaining on the cell surface, the FACS solution was added, centrifuged at 2,000 rpm for 3 minutes and washed three times to remove the supernatant. The washed CHO-TIGIT cell line was re-suspended by addition of 100 μL of FACS solution. The anti-TIGIT antibody of each concentration, which was diluted to 2 times the final concentration using the FACS solution, was added at 100 μL to a 96-well round bottom plate in which the CHO-TIGIT cell line was dispensed, and incubated at 4° C. for 1 hour. Then, in order to remove the anti-TIGIT antibody remaining in the supernatant, without binding to the TIGIT on the cell surface, the FACS solution was added to each well, centrifuged at 2,000 rpm for 3 minutes, and washed three times to remove the supernatant. Then, in order to detect anti-TIGIT antibody bound to TIGIT on the cell surface, a goat anti-human IgG (H+L) cross-adsorbed secondary antibody (Invitrogen) was diluted to 10 μg/mL using a FACS solution, and 100 μL of the diluted antibody was incubated at 4° C. for 1 hour. After washing three times, each sample was transferred to a 12×75 mm tube (BD Biosciences) and analyzed using a fluorescence flow cytometer.

[3] = target: T3, human TIGIT-Fc (rhTIGIT-Fc, R&D Systems); test: SPR (BIAcore T200), antibody immobilised on CM5 chip, TIGIT-Fc flowed
From the text: (§1) In order to measure binding abilities of the three types of anti-TIGIT antibodies produced in Example 2 to human TIGIT (rhTIGIT-Fc) and mouse TIGIT (rmTIGIT-Fc), surface plasmon resonance (SPR) using a BIAcore T200 (GE Healthcare) was used. The SPR method is based on the principle that the refractive index of light passing through a sensor chip changes according to the state of a substance coated on the sensor chip. When an antigen or antibody was made to flow into the chip coated with the antigen or antibody, the refractive index is changed due to binding therebetween and the affinity (KD) value is calculated from the measured value.
(§2) An anti-TIGIT antibody was immobilized on a Series S CM5 sensor chip (GE Healthcare) to a level of 500 RU using a 10 mM acetate solution (pH 4.0) and an amine coupling kit (GE Healthcare). […] The association of the TIGIT-Fc proteins was measured at a rate of 30 μL/min for 600 seconds, the dissociation was measured for 2,000 seconds, and the regeneration was carried out in a 10 mM glycine solution (pH 1.5) at a rate of 100 μL/min for 25 seconds.

[4] = target: T4, mouse TIGIT-Fc (rmTIGIT-Fc, R&D Systems); test: as above
From the text: as §1, §2

Binder	binding inhibition (EC50), TIGIT/CD155 blockade assay, luminescence fold response [1] [nM]	EC50 [2] [µg/mL]	Kd [3] [nM]	koff [3] [s⁻¹]	kon [3] [M⁻¹ s⁻¹]	Kd [4] [nM]	koff [4] [s⁻¹]	kon [4] [M⁻¹ s⁻¹]
F04-10-IgG1 (antibody, V domains shown, also called antibody based on the F04-10 clones) VH: EVQLLESGGGLVQPGGSLRLSCAASGFTFSSYYMSWVRQAPGKGLEWVSSIGSGSPSSTYYADSVKGRFTISRDNSKNTLYLQMNSLRAEDTAVYYCARSSYSGGNGYYYYAYAFDYWGQGTLVTVSS VL: EIVLTQSPGTLSLSPGERATLSCRASQSVSSSYLAWYQQKPGQAPRLLIYGASSRATGIPDRFSGSGSGTDFTLTISRLEPEDFAVYYCQQGYHRYATFGQGTKVEIK	23.9	0.0164	0.533	3.76e-05	70500	0.245	2.93e-05	120000
S64-39-IgG1 (antibody, V domains shown, also called 564-39-IgG1 [sic]; antibody based on the S64-39 clones) VH: EVQLLESGGGLVQPGGSLRLSCAASGFTFSNYAMSWVRQAPGKGLEWVSGISPSGSSIYYADSVQGRFTISRDNSKNTLYLQMNSLRAEDTAVYYCAKAIRTCSLSHCYYYYGMDVWGQGTLVTVSS VL: QSVLTQPPSASGTPGQRVTISCSSSSSNIGSNAVNWYQQLPGTAPKLLIYYDNQRPSGVPDRFSGSKSGTSASLAISGLRSEDEADYYCATWDYSLSGYVFGGGTKLTVL	581	0.069	1.31	4.41e-05	33700	3.2	0.000201	62800
S64-39-IgG4 (antibody, V domains shown, also called 564-39-IgG4 [sic]) VH: EVQLLESGGGLVQPGGSLRLSCAASGFTFSNYAMSWVRQAPGKGLEWVSGISPSGSSIYYADSVQGRFTISRDNSKNTLYLQMNSLRAEDTAVYYCAKAIRTCSLSHCYYYYGMDVWGQGTLVTVSS VL: QSVLTQPPSASGTPGQRVTISCSSSSSNIGSNAVNWYQQLPGTAPKLLIYYDNQRPSGVPDRFSGSKSGTSASLAISGLRSEDEADYYCATWDYSLSGYVFGGGTKLTVL	1080	0.0808	1.15	3.23e-05	28200	3.12	0.000194	62200
10A7 antibody (antibody, V domains shown) VH: EVQLVESGGGLTQPGKSLKLSCEASGFTFSSFTMHWVRQSPGKGLEWVAFIRSGSGIVFYADAVRGRFTISRDNAKNLLFLQMNDLKSEDTAMYYCARRPLGHNTFDSWGQGTLVTVSS VL: DIVMTQSPSSLAVSPGEKVTMTCKSSQSLYYSGVKENLLAWYQQKPGQSPKLLIYYASIRFTGVPDRFTGSGSGTDYTLTITSVQAEDMGQYFCQQGINNPLTFGDGTKLEIKR	–	0.0165	1.19	0.000193	162000	0.182	8.91e-05	490000
